Results published in US20180142222.
Like-named read-outs stand apart in the source and are kept apart here.

Columns and labels:
[1] = target: Cas9HNH (Cy3/Cy5-labelled reporter Cas9; dCas9HNH for binding data) C80S,C574S,S355C,S867C (Streptococcus pyogenes) (UniProt Q99ZW2); settings: direct binding assay estimate
[2] = target: Cas9hinge (Cy3/Cy5-labelled reporter Cas9) C80S,C574S,D435C,E945C (Streptococcus pyogenes) (UniProt Q99ZW2); settings: bound but (ratio)A indistinguishable from apo

## full-length sgRNA ; PAM-distal mismatch DNA
[1]; (ratio)A falls with mismatch number, dCas9 gives stable footprint on these substrates
  binding: > 89 % bound

## full-length sgRNA ; on-target DNA
[1]; large FRET increase on target DNA
  binding: > 89 % bound

## sgRNA delta-spacer1-20
[2]
  binding: > 95 % bound
